In patent US20260184782A1 (published 2026):

Kd (TIGIT55-11): 327 nM
Kd (TIGIT55-06): 153 nM
Kd (TIGIT55-05): 97.6 nM
Kd (TIGIT55-13): 112 nM
Kd (TIGIT55-01): 15.9 nM
Kd (TIGIT55-14): 139 nM
B1: hTIGIT (receptor)
chain: MMTGTIETTGNISAEKGGSIILQCHLSSTTAQVTQVNWEQQDQLLAICNADLGWHISPSFKDRVAPGPGLGLTLQSLTVNDTGEYFCIYHTYPDGTYTGRIFLEVLESSVAEHGARFQIP
